Experimental data published in PMC6436931, “Activation of the Endonuclease that Defines mRNA 3′ Ends Requires Incorporation into an 8-Subunit Core Cleavage and Polyadenylation Factor Complex” (Molecular Cell, 2019).

Experiments:
[1] = molecular target: Cft1;Pfs2;Yth1;Fip1;Pap1;Cft2;Ysh1;Mpe1 (Saccharomyces cerevisiae;Saccharomyces …, UniProt Q06632;P42841;Q06102;P45976;P29468;Q12102;Q06224;P35728 …, |||||||); experiment: EMSA; CPFcore; EMSA: 50 nM RNA, 0.25-4.0 uM protein, protein diluted in 10 mM HEPES pH 7.9, 150 mM NaCl, 0.5 mM Mg(OAc)2, plus 1x loading dye (orange G, glycerol, EDTA); 30 min on ice; native 6% acrylamide/TBE PAGE; details: tags: ;3C-SII;3C-8H, untagged in CPFpol+Cft2;;SII (Pap1-SII) when alone, untagged in CPFpol and CPFcore;SII (Cft2-SII) when alone, untagged in CPFpol+Cft2 and CPFcore;;3C-SII (C-terminal) in Ysh1-Mpe1 complexes, copies: 1;2;1;1;1;1;1;1, label: 5'-FAM
[2] = molecular target: Cft1;Pfs2;Yth1;Fip1;Pap1;Cft2 (Saccharomyces cerevisiae;Saccharomyces …, UniProt Q06632;P42841;Q06102;P45976;P29468;Q12102 1-1357;1-465;1-208;1-327;1-568;1-859, |||||); experiment: EMSA; CPFpol + Cft2; EMSA: 50 nM RNA, 0.25-4.0 uM protein, protein diluted in 10 mM HEPES pH 7.9, 150 mM NaCl, 0.5 mM Mg(OAc)2, plus 1x loading dye (orange G, glycerol, EDTA); 30 min on ice; native 6% acrylamide/TBE PAGE; details: protein: recombinant;recombinant;recombinant;recombinant;recombinant;recombinant, tags: ;3C-SII;3C-8H, untagged in CPFpol+Cft2;;SII (Pap1-SII) when alone, untagged in CPFpol and CPFcore;SII (Cft2-SII) when alone, copies: 1;2;1;1;1;1, label: 5'-FAM
Ysh1;Mpe1 = molecular target: T1, Ysh1;Mpe1 (Saccharomyces cerevisiae;Saccharomyces …, UniProt Q06224;P35728 1-779;1-441, |); experiment: EMSA; EMSA: 50 nM RNA, 0.25-4.0 uM protein, protein diluted in 10 mM HEPES pH 7.9, 150 mM NaCl, 0.5 mM Mg(OAc)2, plus 1x loading dye (orange G, glycerol, EDTA); 30 min on ice; native 6% acrylamide/TBE PAGE; details: protein: recombinant;recombinant; tags: ;3C-SII (C-terminal) in Ysh1-Mpe1 complexes; untagged in CPFcore; copies: 1;1; label: 5'-FAM
T1 sequence 1: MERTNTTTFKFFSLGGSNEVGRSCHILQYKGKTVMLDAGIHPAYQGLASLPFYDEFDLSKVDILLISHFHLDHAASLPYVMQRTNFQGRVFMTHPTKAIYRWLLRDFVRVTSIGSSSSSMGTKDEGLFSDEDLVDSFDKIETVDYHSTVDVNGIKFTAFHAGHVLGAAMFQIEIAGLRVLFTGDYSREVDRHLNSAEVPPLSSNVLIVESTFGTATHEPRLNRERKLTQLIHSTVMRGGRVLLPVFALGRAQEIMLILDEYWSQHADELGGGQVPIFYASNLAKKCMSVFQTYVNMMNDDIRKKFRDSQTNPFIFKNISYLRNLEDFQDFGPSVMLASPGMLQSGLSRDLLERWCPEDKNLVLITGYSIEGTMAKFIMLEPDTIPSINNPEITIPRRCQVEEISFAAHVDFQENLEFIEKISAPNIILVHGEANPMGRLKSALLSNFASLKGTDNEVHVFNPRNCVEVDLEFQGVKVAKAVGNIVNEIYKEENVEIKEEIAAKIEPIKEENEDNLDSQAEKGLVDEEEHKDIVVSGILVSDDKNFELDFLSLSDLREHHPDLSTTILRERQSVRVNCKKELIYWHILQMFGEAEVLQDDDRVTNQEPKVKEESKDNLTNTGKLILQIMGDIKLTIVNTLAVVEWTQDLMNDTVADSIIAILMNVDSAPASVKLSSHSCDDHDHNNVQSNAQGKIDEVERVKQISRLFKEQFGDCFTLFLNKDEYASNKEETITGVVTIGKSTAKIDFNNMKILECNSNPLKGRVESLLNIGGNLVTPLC
T1 sequence 2: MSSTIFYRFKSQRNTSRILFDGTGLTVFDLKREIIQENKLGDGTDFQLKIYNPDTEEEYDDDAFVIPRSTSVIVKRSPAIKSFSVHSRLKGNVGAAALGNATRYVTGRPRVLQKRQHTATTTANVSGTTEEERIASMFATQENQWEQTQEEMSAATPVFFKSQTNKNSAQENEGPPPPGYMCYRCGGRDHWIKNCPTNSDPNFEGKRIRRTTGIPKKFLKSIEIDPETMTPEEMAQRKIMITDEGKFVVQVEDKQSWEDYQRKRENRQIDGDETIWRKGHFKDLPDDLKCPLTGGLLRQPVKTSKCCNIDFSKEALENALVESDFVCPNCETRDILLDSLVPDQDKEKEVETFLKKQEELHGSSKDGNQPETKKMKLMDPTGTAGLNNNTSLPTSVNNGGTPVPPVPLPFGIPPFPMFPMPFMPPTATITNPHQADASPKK

Ysh1;Mpe1;Yjr141w = Ysh1;Mpe1;Yjr141w (Saccharomyces cerevisiae;Saccharomyces …, UniProt Q06224;P35728;P47172 1-779;1-441;1-347, ||); experiment: as above; details: protein: recombinant;recombinant;recombinant; tags: ;3C-SII (C-terminal) in Ysh1-Mpe1 complexes; untagged in CPFcore;SII-3C (N-terminal) in Ysh1-Yjr141w; untagged in Ysh1-Mpe1-Yjr141w; copies: 1;1;1; label: 5'-FAM
Cft1;Pfs2;Yth1;Fip1;Pap1 = Cft1;Pfs2;Yth1;Fip1;Pap1 (Saccharomyces cerevisiae;Saccharomyces …, UniProt Q06632;P42841;Q06102;P45976;P29468 1-1357;1-465;1-208;1-327;1-568, ||||); experiment: EMSA; CPFpol; EMSA: 50 nM RNA, 0.25-4.0 uM protein, protein diluted in 10 mM HEPES pH 7.9, 150 mM NaCl, 0.5 mM Mg(OAc)2, plus 1x loading dye (orange G, glycerol, EDTA); 30 min on ice; native 6% acrylamide/TBE PAGE; details: protein: recombinant;recombinant;recombinant;recombinant;recombinant; tags: ;3C-SII;3C-8H; untagged in CPFpol+Cft2;;SII (Pap1-SII) when alone; untagged in CPFpol and CPFcore; copies: 1;2;1;1;1; label: 5'-FAM

Sequence of Ysh1;Mpe1;Yjr141w (P47172 whole entry, chain 3 of 3, one chain of several): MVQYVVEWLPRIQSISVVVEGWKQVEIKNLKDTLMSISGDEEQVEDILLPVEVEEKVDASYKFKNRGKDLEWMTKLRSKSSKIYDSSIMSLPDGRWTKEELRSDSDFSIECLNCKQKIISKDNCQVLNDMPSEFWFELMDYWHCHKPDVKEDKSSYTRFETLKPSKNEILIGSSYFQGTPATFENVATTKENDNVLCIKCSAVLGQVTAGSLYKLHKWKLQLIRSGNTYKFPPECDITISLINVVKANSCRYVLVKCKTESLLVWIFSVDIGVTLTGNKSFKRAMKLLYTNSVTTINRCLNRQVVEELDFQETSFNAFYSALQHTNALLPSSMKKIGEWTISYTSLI

Row | Binder | binding result [1] | binding result [2] | binding result (Ysh1;Mpe1) | binding result (Ysh1;Mpe1;Yjr141w) | binding result (Cft1;Pfs2;Yth1;Fip1;Pap1)
1 | CGUUAUUUAUAUUUCAAAUUUUUCU (ssRNA) [CYC1f EMSA probe] | binds | binds | – | – | –
2 | UUUUUUUUUUUUUUU (ssRNA) [U15] | no binding | no binding | no binding | no binding | no binding
3 | CCCCCCCCCCCCCCC (ssRNA) [C15] | no binding | no binding | no binding | no binding | no binding
4 | AAAAAAAAAAAAAAA (ssRNA) [A15] | binds | binds | no binding | no binding | binds
5 | GGGGGGGGGGGGGGG (ssRNA) [G15] | binds | binds | binds | binds | binds
6 | AAGAACGUUAUUUAUAUUUCAAAUUUUUCUUUUUU (ssRNA) [CYC1d EMSA probe] | binds | binds | – | – | binds
